The assay concerns the target putative cross-reactive peptide arising from SH2D3A, on HLA-A*02:01 of T2 cells (human). As to the kind of experiment: cell-based or functional assay.

1 molecule from patent US20250009799A1 (Amgen, published 2025) can be followed below.

B1: TCR2 (TCR, V domains shown)
V domain 1: EDQVTQSPEALRLQEGESSSLNCSYTVSGLRGLFWYRQDPGKGPEFLFTLYSAGEEKEKERLKATLTKKESFLHITAPKPEDSATYLCAVQAWGGGSQGNLIFGKGTKLSVKP
V domain 2: DSGVTQTPKHLITATGQRVTLRCSPRSGDLSVYWYQQSLDQGLQFLIQYYNGEERAKGNILERFSAQQFPDLHSELNLSSLELGDSALYFCASSAGDRGYEQYFGPGTRLTVTE
In the case of B1, the “EC50 in T2/peptide TDCC assay, against the DCAF4L2 target peptide” value came to 87 fold.
